According to PMC3959648, “Screening protein – Single stranded RNA complexes by NMR spectroscopy for structure determination☆”:

Experiments:
Conditions in all cases: protein: recombinant; tags: N-terminal His tag removed by TEV
[1] = target: T1, Sam68 KH (UniProt Q07666 150-260); experiment: NMR 15N-1H HSQC CSP; slow exchange; strong affinity; T-STAR KH: 10 mM Tris-HCl pH 7 (also given as pH 6.5, 50 mM NaCl, 30 C); Sam68 KH: 20 mM sodium phosphate pH 7.0, 50 mM NaCl, 20 C; about 0.2 mM protein, protein:RNA 1:0.5 and 1:1
T1 sequence (Q07666 150-260): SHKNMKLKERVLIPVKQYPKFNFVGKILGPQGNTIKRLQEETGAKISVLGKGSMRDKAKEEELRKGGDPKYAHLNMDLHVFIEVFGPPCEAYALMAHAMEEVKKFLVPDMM

[2] = target: T2, T-STAR KH (UniProt O75525 50-160); experiment: NMR 15N-1H HSQC CSP; fast exchange; T-STAR KH: 10 mM Tris-HCl pH 7 (also given as pH 6.5, 50 mM NaCl, 30 C); Sam68 KH: 20 mM sodium phosphate pH 7.0, 50 mM NaCl, 20 C; about 0.2 mM protein, protein:RNA 1:0.5 and 1:1
T2 sequence: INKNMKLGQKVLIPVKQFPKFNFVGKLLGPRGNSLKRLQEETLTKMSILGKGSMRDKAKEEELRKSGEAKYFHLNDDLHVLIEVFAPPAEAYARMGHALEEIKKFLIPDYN

[3] = target: T3, T-STAR KH-QUA2 (UniProt O75525 50-183); experiment: NMR 15N-1H HSQC CSP; T-STAR KH: 10 mM Tris-HCl pH 7 (also given as pH 6.5, 50 mM NaCl, 30 C); Sam68 KH: 20 mM sodium phosphate pH 7.0, 50 mM NaCl, 20 C; about 0.2 mM protein, protein:RNA 1:0.5 and 1:1
T3 sequence: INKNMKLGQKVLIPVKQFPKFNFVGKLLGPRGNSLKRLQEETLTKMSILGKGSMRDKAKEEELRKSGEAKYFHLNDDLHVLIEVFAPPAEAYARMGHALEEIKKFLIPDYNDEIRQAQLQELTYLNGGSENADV

[4] = target: T2, T-STAR KH; experiment: NMR TOCSY; 100% D2O; chemical exchange, possibly multiple registers; T-STAR KH: 10 mM Tris-HCl pH 7 (also given as pH 6.5, 50 mM NaCl, 30 C); Sam68 KH: 20 mM sodium phosphate pH 7.0, 50 mM NaCl, 20 C; about 0.2 mM protein, protein:RNA 1:0.5 and 1:1
[5] = target: T1, Sam68 KH; experiment: NMR 15N-1H HSQC CSP; T-STAR KH: 10 mM Tris-HCl pH 7 (also given as pH 6.5, 50 mM NaCl, 30 C); Sam68 KH: 20 mM sodium phosphate pH 7.0, 50 mM NaCl, 20 C; about 0.2 mM protein, protein:RNA 1:0.5 and 1:1
[6] = target: T2, T-STAR KH; experiment: NMR 15N-1H HSQC CSP; fast to intermediate exchange; higher affinity than AAAUAA; T-STAR KH: 10 mM Tris-HCl pH 7 (also given as pH 6.5, 50 mM NaCl, 30 C); Sam68 KH: 20 mM sodium phosphate pH 7.0, 50 mM NaCl, 20 C; about 0.2 mM protein, protein:RNA 1:0.5 and 1:1

AUUAAA (ssRNA)
binding result [1]: binds

AAAUAA (ssRNA)
binding result [2]: binds | binding result [3]: binds

UAAAUAAUU (ssRNA)
binding result [4]: binds

UUUUUU (ssRNA) [UUUUUU (polyU 6mer)]
binding result [5]: no binding

AAAAAA (ssRNA) [AAAAAA (polyA 6mer)]
binding result [6]: binds

UAAAAUUUUU (ssRNA)
binding result [4]: binds
